From patent US20130251708A1 (ABGENOMICS COOPERATIEF U A, published 2013)

T1: human PSGL-1 on activated primary human CD4+ T cells (human, UniProt Q14242 42-412)
T1 construct: also called P-selectin glycoprotein ligand-1; SELPLG
T1 sequence: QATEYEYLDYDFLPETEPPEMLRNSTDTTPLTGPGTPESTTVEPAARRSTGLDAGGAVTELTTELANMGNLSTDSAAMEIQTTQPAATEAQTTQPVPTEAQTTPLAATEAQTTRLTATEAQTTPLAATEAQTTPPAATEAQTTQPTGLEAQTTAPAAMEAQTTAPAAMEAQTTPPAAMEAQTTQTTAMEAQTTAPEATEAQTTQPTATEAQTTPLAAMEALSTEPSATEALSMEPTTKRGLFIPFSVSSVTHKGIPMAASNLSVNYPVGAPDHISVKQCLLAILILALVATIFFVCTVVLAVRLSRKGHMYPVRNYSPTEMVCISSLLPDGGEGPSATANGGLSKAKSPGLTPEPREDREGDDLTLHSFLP


How the values were obtained:
[1] = target: T1, human PSGL-1 on activated primary human …; test: flow cytometry on activated human CD4+ T cells, mean +/- SEM of 4 donors
Experimental: (§1) Anti-lysozyme IgG4, h15A7 and 15A7H antibody binding affinity to activated CD4+ T cells were determined by plotting antibody concentration versus mean fluorescence index (MFI) for each sample duplicate using XLfit (model: dose response one site, 205). EC50 values were determined for each binding curve.
Using flow cytometry, the binding of 15A7H to activated human CD4+ T-cells was determined.
(§2) EC50 values from 4 donors were used to calculate Mean+/−SEM.

[2] = target: T1, human PSGL-1 on activated primary human …; test: flow cytometry on activated human CD4+ T cells, mean +/- SEM
Experimental: as §1, §2

Row | Binder | EC50 [1] [nM] | EC50 [2] [nM]
1 | 15A7H (antibody, human IgG4 S228P, kappa, Humanized IgG4 kappa antibody with the Ser228->Pro228 (EU index) hinge mutation, made in CHO-DG44 cells; also called hinge mutant of h15A7; 15A7H antibody) heavy: not shown light: DIQMTQSPSSLSASVGDRVTITCRSSQSIVHNDGNTYFEWYQQKPGKAPKLLIYKVSNRFSGVPSRFSGSGSGTHFTLTISSLQPEDFATYYCFQGSYVPLTFGQGTKVEIKRTVAAPSVFIFPPSDEQLKSGTASVVCLLNNFYPREAKVQWKVDNALQSGNSQESVTEQDSKDSTYSLSSTLTLSKADYEKHKVYACEVTHQGLSSPVTKSFNRGEC | 0.22 | 
2 | h15A7 (antibody, human IgG4, kappa, Parent IgG4 kappa antibody with the wild-type hinge; also called Antibody h15A7) heavy: not shown light: DIQMTQSPSSLSASVGDRVTITCRSSQSIVHNDGNTYFEWYQQKPGKAPKLLIYKVSNRFSGVPSRFSGSGSGTHFTLTISSLQPEDFATYYCFQGSYVPLTFGQGTKVEIKRTVAAPSVFIFPPSDEQLKSGTASVVCLLNNFYPREAKVQWKVDNALQSGNSQESVTEQDSKDSTYSLSSTLTLSKADYEKHKVYACEVTHQGLSSPVTKSFNRGEC |  | 0.27
